Source: IntAct's records for PubMed 16418270

B1: Ribonuclease P protein component 2 (Pyrococcus furiosus), Q8U151 (parent)
chain: MSERPKTLPPTLRDKKRYIAFKVISENQFNKDEIKEAIWNACLRTLGELGTAKAKPWLIKFDETTQTGIIRCDRNHVYDVIFSLTLVSDINGNKAIIKVLGVSGTIKRLKRKFLSQFGWR
partner: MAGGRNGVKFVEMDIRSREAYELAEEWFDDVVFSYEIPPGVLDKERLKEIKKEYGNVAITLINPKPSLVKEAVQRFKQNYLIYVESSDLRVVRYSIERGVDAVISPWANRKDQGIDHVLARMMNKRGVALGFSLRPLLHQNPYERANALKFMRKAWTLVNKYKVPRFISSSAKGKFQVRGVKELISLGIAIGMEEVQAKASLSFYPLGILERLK

Variants of: B1
Settings: with rnp3_pyrfu rnp3, Q8TZS0

| effect of a mutation on the interaction | Variant |
| --- | --- |
| decreasing interaction | C72S |
